US20220177558A1 (INSERM INSTITUT NATIONAL DE LA SANT ET DE LA RECHERCHE M …, published 2022)
Where no end group is shown, it is not given here.

Target: T1, Ac-Met11-Tau peptide: {N-alpha-acetyl}MEDHAGTYGLG (human)
T1 construct: Synthetic peptide coated on the ELISA plate; The C-terminal cysteine was added only for KLH conjugation of the immunogen; also called N-alpha-acetyl-Met11-Tau peptide; AcMet11-peptide
T1 peptide: Ac-MEDHAGTYGLG
Assay: indirect ELISA on coated peptide, positive control

B1: 2H2D11 antibody (antibody, IgG2a, V domains shown)
VH: EVRLVESGGGLVQPGGSLRLSCATSGFTFTDYYLSWVRQPPGKAFEWLGFIRNRADGYTTNYSASVKGRFTISRDNSQSILYLQMNTLRVEDSATYYCARDNDHYAMDYWGQGTSVTVSS
VL: DVVMTQTPLSLSVTIGQPASISCKSSQSLLYSNGKTYLNWLQQRPGQAPKHLMYQVSKLDPGIPDRFSGSGSETDFILKISRVEAEDLGIYYCLQGTYYPYTFGGGTKLEIK
notes: also called Mab 2H2D11; monoclonal antibody directed against AcMet11-Tau
  binding result: binds
